This is an account of results in paper PMC4570271, “Resolution of structure of PIP5K1A reveals molecular mechanism for its regulation by dimerization and dishevelled” (Nature Communications, 2015).

To fix the notation:
T1: zebrafish PIP5K1A kinase catalytic domain (residues 49-431), wild type (zebrafish, UniProt Q503I3 49-431)
T1 chain: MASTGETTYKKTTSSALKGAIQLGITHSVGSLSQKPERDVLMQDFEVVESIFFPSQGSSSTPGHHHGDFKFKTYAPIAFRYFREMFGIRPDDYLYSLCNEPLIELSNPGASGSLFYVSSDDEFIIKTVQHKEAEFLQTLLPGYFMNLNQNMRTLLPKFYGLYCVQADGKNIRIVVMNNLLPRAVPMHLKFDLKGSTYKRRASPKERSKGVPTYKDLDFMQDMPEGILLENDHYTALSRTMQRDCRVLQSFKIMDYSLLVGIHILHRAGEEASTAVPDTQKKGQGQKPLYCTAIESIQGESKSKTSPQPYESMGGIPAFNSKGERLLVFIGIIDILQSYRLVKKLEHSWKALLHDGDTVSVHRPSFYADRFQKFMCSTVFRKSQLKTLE

B1: zebrafish PIP5K1A kinase catalytic domain (residues 49-431), wild type (domain or fragment)
chain: T1 chain
notes: kinase catalytic domain of zebrafish PIP5K1Aα, residues 49-431; C-terminal 'Leu-Glu' that precedes the His6 tag; Dimer by SEC/MALLS and in the crystal; also called zPIP5K1A; PIP5K1A kinase domain; not shown: His6, C-terminal, kept
B2: GST-tagged DIX domain of mouse DVL1 (residues 1-106) with Y17D (domain or fragment, UniProt P51141 1-106, looked up)
chain: MAETKIIYHMDEEETPDLVKLPVAPERVTLADFKNVLSNRPVHAYKFFFKSMDQDFGVVKEEIFDDNAKLPCFNGRVVSWLVLAEGAHSDAGSQGTDSHTDLPPPL
notes: DIX domain of mouse DVL1, residues 1-106, Y17D to eliminate DIX aggregation; A longer construct 1-200 (DIX-L) is named in the methods but tied to no experiment; also called DVL DIX; GST-DVL; source: E. coli, purified (glutathione-agarose beads, size-exclusion chromatography)

Data set [1] deals with the molecule itself. Briefly: SEC-MALS; Superdex S-200 10/30 HR; 10 mM HEPES (pH 7.3), 300 mM NaCl, 5% glycerol, 0.01% TX-100; 0.5 ml/min.
The target of data set [2] is B2. Put plainly: cell-based or functional assay.
Data set [3] has as its target T1, zebrafish PIP5K1A kinase catalytic …. Briefly: ITC.
Data set [4] concerns the target B1. Briefly: pull-down; GST-DIX (or GST) 0.5 μg and His-tagged PIP5K1 0.5 μg in 200 μl of 10 mM HEPES (pH 7.4), 150 mM NaCl, 0.2% Triton, 0.01% SDS, 3 mM dithiothreitol, 10% glycerol; 4 °C overnight; glutathione beads; western blotting. To be noted: both partners purified.
The target of data set [5] is T2, zebrafish PIP5K1A kinase catalytic domain, triple D84R/L86A/V291A (DLV) mutant (zebrafish, UniProt Q503I3 49-431, D84R | L86A | V291A).
T2 construct: kinase catalytic domain of zebrafish PIP5K1Aα, residues 49-431; C-terminal 'Leu-Glu' that precedes the His6 tag; Monomeric by SEC/MALLS; also called monomeric mutant DLV; TM-PIP5K; source: E. coli BL21-CodonPlus(DE3)-RIL, purified in the same way as the wild-type protein; not shown: His6, C-terminal, kept
The data set is described as above. To be noted: both partners purified.

As for B1, in data set [1], the “stoichiometry N” value came to 2. Besides, the “fold activation of the lipid kinase activity by DIX” value in data set [2] amounted to 3 fold.
B2 returned a dissociation constant (Kd) in data set [3] of 1200 nM. Also, the binding result in data set [4] and in data set [5] was “binds” each time.
